Reference: patent publication US20260184782A1 (TWIST BIOSCIENCE, published 2026)

T1: recombinant human TIGIT (human, UniProt Q495A1 22-141, limits assumed)
T1 construct: recombinant human TIGIT used in Carterra SPR; also called hTIGIT
T1 sequence (looked up): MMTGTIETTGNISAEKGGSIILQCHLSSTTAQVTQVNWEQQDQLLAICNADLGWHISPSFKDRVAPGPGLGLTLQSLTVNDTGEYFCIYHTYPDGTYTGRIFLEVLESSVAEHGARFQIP


Molecular target: T1, recombinant human TIGIT
Test: SPR Carterra, average
Description: Binding affinities of VHH-Fc proteins to recombinant human TIGIT were measured by SPR using a Carterra instrument (Table 10A). […] Average values reported from measurements from 1-2 samples.

Binder | Kd [nM] | koff [s⁻¹] | kon [M⁻¹ s⁻¹]
TIGIT-SC89 (Fc fusion, VHH-Fc fusion in assay) VHH: EVQLVESGGGLVQPGGSLRLSCAASGSMSSINAMGWFRQAPGKEREFVAAINYEGDRTYYADSVKGRFTISADNSKNTAYLQMNSLKPEDTAVYYCARWTRGLVSGTYYYYMDVWGQGTLVTVSS | 30.8 | 0.00294 | 106000
TIGIT-SC90 (Fc fusion, VHH-Fc fusion in assay) VHH: EVQLVESGGGLVQPGGSLRLSCAASGDTFSSKAMGWFRQAPGKEREFVAAIRWSVSSTYYADSVKGRFTISADNSKNTAYLQMNSLKPEDTAVYYCARWTRGLVSGTYYYYMDVWGQGTLVTVSS | 59.5 | 0.00301 | 50500
TIGIT-SC102 (Fc fusion, VHH-Fc fusion in assay) VHH: EVQLVESGGGLVQPGGSLRLSCAASGSTFSKHHAMGWFRQAPGKEREFVAAIRWSGGNTYYADSVKGRFTISADNSKNTAYLQMNSLKPEDTAVYYCARWYSSSGDYYYMDVWGQGTLVTVSS | 33.5 | 0.00146 | 43500
TIGIT-SC161 (Fc fusion, VHH-Fc fusion in assay) VHH: EVQLVESGGGLVQPGGSLRLSCAASGFTFSPSWMGWFRQAPGKEREWVASVLRGGYTWYADSVKGRFTISADNSKNTAYLQMNSLKPEDTAVYYCTTDRAIGVRPLFDHWGQGTLVTVSS | 33.9 | 0.00146 | 57100
TIGIT-SC162 (Fc fusion, VHH-Fc fusion in assay) VHH: EVQLVESGGGLVQPGGSLRLSCAASGNTFSGGFMGWFRQAPGKEREWVASVLRGGYTWYADSVKGRFTISADNSKNTAYLQMNSLKPEDTAVYYCTTDRAIGVRPLFDHWGQGTLVTVSS | 126 | 0.0203 | 622000
TIGIT-SC149 (Fc fusion, VHH-Fc fusion in assay) VHH: EVQLVESGGGLVQPGGSLRLSCAASGFTLENNMMGWFRQAPGKEREFVAAISRSGTLKAYADSVKGRFTISADNSKNTAYLQMNSLKPEDTAVYYCAKVQGPYCSGGSCYLYTFDLWGQGTLVTVSS | 35 | 0.0043 | 123000
TIGIT-SC44 (Fc fusion, VHH-Fc fusion in assay) VHH: EVQLVESGGGLVQPGGSLRLSCAASGSIFGLGAMGWFRQAPGKERELVAITWGGSTTLYADSVKGRFTISADNSKNTAYLQMNSLKPEDTAVYYCATDQGQWLFDFWGQGTLVTVSS | 35.1 | 0.0124 | 354000
TIGIT-SC66 (Fc fusion, VHH-Fc fusion in assay) VHH: EVQLVESGGGLVQPGGSLRLSCAASGTTFSSAAMGWFRQAPGKEREWVASVLRGGYTWYADSVKGRFTISADNSKNTAYLQMNSLKPEDTAVYYCVTDPRQWLGHDYWGQGTLVTVSS | 39.1 | 0.00116 | 29700
TIGIT-SC144 (Fc fusion, VHH-Fc fusion in assay) VHH: EVQLVESGGGLVQPGGSLRLSCAASGFTLENNMMGWFRQAPGKEREFVAAISPSGTLRAYADSVKGRFTISADNSKNTAYLQMNSLKPEDTAVYYCAGIHDSGVPLGNWGQGTLVTVSS | 41 | 0.00574 | 140000
TIGIT-SC131 (Fc fusion, VHH-Fc fusion in assay) VHH: EVQLVESGGGLVQPGGSLRLSCAASGDTSEIYDMGWFRQAPGKEREFVAITWNSGRIGSNGFATYADSVKGRFTISADNSKNTAYLQMNSLKPEDTAVYYCARWAVGQAFDLWGQGTLVTVSS | 41 | 0.0278 | 677000
TIGIT-SC133 (Fc fusion, VHH-Fc fusion in assay) VHH: EVQLVESGGGLVQPGGSLRLSCAASGFTLENNMMGWFRQAPGKEREFVAAISASGTLRAYADSVKGRFTISADNSKNTAYLQMNSLKPEDTAVYYCACGRVSGAFIYFDYWGQGTLVTVSS | 41.9 | 0.00561 | 158000
TIGIT-SC129 (Fc fusion, VHH-Fc fusion in assay) VHH: EVQLVESGGGLVQPGGSLRLSCAASGPTLGSYVMGWFRQAPGKEREFVAAISGSGDDTYYADSVKGRFTISADNSKNTAYLQMNSLKPEDTAVYYCARWREFPGYYFAIDVWGQGTLVTVSS | 43.9 | 0.00191 | 43700
TIGIT-SC130 (Fc fusion, VHH-Fc fusion in assay) VHH: EVQLVESGGGLVQPGGSLRLSCAASGPTLGSYVTGWFRQAPGKEREFVAAISGSSDDTYYADSVKGRFTISADNSKNTAYLQMNSLKPEDTAVYYCARWREFPGYYFAIDVWGQGTLVTVSS | 73 | 0.00526 | 72000
TIGIT-SC85 (Fc fusion, VHH-Fc fusion in assay) VHH: EVQLVESGGGLVQPGGSLRLSCAASGRTFSPYTMGWFRQAPGKEREWVAGISQSGGSTAYADSVKGRFTISADNSKNTAYLQMNSLKPEDTAVYYCARDLNAMGDAYDIWGQGTLVTVSS | 44.6 | 0.000599 | 8760
TIGIT-SC65 (Fc fusion, VHH-Fc fusion in assay) VHH: EVQLVESGGGLVQPGGSLRLSCAASGFTFGNYDMGWFRQAPGKEREFVAAITGSGRSTYYADSVKGRFTISADNSKNTAYLQMNSLKPEDTAVYYCARGRIAASGTKVYWYFDLWGQGTLVTVSS | 44.9 | 0.0249 | 1.09e+06
TIGIT-SC128 (Fc fusion, VHH-Fc fusion in assay) VHH: EVQLVESGGGLVQPGGSLRLSCAASGFIGNYHAMGWFRQAPGKEREFVARITSGGSTYYADSVKGRFTISADNSKNTAYLQMNSLKPEDTAVYYCGGFGNWGQGTLVTVSS | 45.4 | 0.00708 | 158000
TIGIT-SC132 (Fc fusion, VHH-Fc fusion in assay) VHH: EVQLVESGGGLVQPGGSLRLSCAASGFTLENNMMGWFRQAPGKEREFVAAISASGTLRAYADSVKGRFTISADNSKNTAYLQMNSLKPEDTAVYYCATWRPNRGRYYDWYFDLWGQGTLVTVSS | 45.6 | 0.00347 | 197000
TIGIT-SC145 (Fc fusion, VHH-Fc fusion in assay) VHH: EVQLVESGGGLVQPGGSLRLSCAASGNTFSGGFTLGYYVMGWFRQAPGKEREFVAAISRSGTLKAYADGVKGRFTISADNSKNTAYLQMNSLKPEDTAVYYCARVEAYGDPLGYWGQGTLVTVSS | 47.9 | 0.0108 | 226000
TIGIT-SC72 (Fc fusion, VHH-Fc fusion in assay) VHH: EVQLVESGGGLVQPGGSLRLSCAASGGLTFSSYAMGWFRQAPGKEREFVAAISWSGGRTYYADSVKGRFTISADNSKNTAYLQMNSLKPEDTAVYYCARWSAKRHSDTMTYYMDVWGQGTLVTVSS | 48.1 | 0.00168 | 34900
TIGIT-SC5 (Fc fusion, VHH-Fc fusion in assay) VHH: EVQLVESGGGLVQPGGSLRLSCAASGFAFGDSWMGWFRQAPGKEREWVASVLRGGYTWYADSVKGRFTISADNSKNTAYLQMNSLKPEDTAVYYCARESEGWFDPWGQGTLVTVSS | 51.4 | 0.00216 | 42000
TIGIT-SC183 (Fc fusion, VHH-Fc fusion in assay) VHH: EVQLVESGGGLVQPGGSLRLSCAASGFAFGDSWMGWFRQAPGKEREWVASVLRGGYTWYADSVKGRFTISADNSKNTAYLQMNSLKPEDTAVYYCAKDRSYSFDYWGQGTLVTVSS | 55.2 | 0.00495 | 90400
TIGIT-SC16 (Fc fusion, VHH-Fc fusion in assay) VHH: EVQLVESGGGLVQPGGSLRLSCAASGTTFSSAAMGWFRQAPGKEREWVASVLRGGYTWYADSVKGRFTISADNSKNTAYLQMNSLKPEDTAVYYCARDPVELGDYWGQGTLVTVSS | 52.6 | 0.00387 | 80100
TIGIT-SC139 (Fc fusion, VHH-Fc fusion in assay) VHH: EVQLVESGGGLVQPGGSLRLSCAASGFTLENNMMGWFRQAPGKEREFVAAISRSGTLKAYADSVKGRFTISADNSKNTAYLRMNSLKPEDTAVYYCAGLTSGGAFSYYWGQGTLVTVSS | 55.2 | 0.00778 | 141000
TIGIT-SC53 (Fc fusion, VHH-Fc fusion in assay) VHH: EVQLVESGGGLVQPGGSLRLSCAASGFTFSPSWMGWFRQAPGKEREWVASVLRGGYTWYADSVKGRFTISADNSKNTAYLQMNSLKPEDTAVYYCARESTIVGAIDSWGQGTLVTVSS | 55.4 | 0.0027 | 48800
TIGIT-SC164 (Fc fusion, VHH-Fc fusion in assay) VHH: EVQLVESGGGLVQPGGSLRLSCAASGFTFDRSWMGWFRQAPGKEREFVASVLRGGYTWYADSVKGRFTISADNSKNTAYLQMNSLKPEDTAVYYCTTEGSGWRNWGQGTLVTVSS | 55.7 | 0.00258 | 52800
TIGIT-SC29 (Fc fusion, VHH-Fc fusion in assay) VHH: EVQLVESGGGLVQPGGSLRLSCAASGFTLENNMMGWFRQAPGKERELVAAIDWSGGSTIYADSVKGRFTISADNSKNTAYLQMNSLKPEDTAVYYCARGHDYGDYIAYWGQGTLVTVSS | 59.2 | 0.00287 | 48700
TIGIT-SC182 (Fc fusion, VHH-Fc fusion in assay) VHH: EVQLVESGGGLVQPGGSLRLSCAASGFTFSSSSMGWFRQAPGKEREFVAAINWSGGSTSYADSVKGRFTISADNSKNTAYLQMNSPKPEDTAVYYCAKDRSYSFDYWGQGTLVTVSS | 60.6 | 0.00722 | 119000
TIGIT-SC15 (Fc fusion, VHH-Fc fusion in assay) VHH: EVQLVESGGGLVQPGGSLRLSCAASGSILSFNHIGWFRQAPGKEREGVAWIARYDGSTLYADSVKGRFTISADNSKNTAYLQMNSLKPEDTAVYYCARARGGYVDYWGQGTLVTVSS | 62 | 0.00814 | 143000
